Results taken from the supplement of paper PMC9170038.

Test system: MS2 coat protein
Test: apparent KD of MS2 coat protein; designed switch direction (-1 OFF switch, 1 ON switch): 1; higher = weaker reporter binding
Method in brief: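 Designed RNA switches with common flanks were transcribed on Illumina chips by stalled E. coli RNA polymerase and titrated with SNAP-549-labelled MS2 coat protein, from 0.7 or 1.5 nM doubling to 3 µM, in Tris-HCl pH 7.5 buffer with KCl, MgCl2, BSA, DTT, tRNA and Tween-20. Steps lasted 0.8–1.5 h (lowest) to 10–20 min (highest). Titrations ran without input, with 200 uM small-molecule ligand, or with an oligonucleotide input. Normalised cluster fluorescence was curve-fitted, and apparent KD is the per-design median over clusters.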

[1] = input ligand: microRNA oligo, concentration not stated
[2] = Eterna round: R95, input ligand: FMN 200 uM
[3] = Eterna round: R95, input ligand: microRNA oligo, concentration not stated
[4] = Eterna round: R95, input ligand: none

| Sequence | apparent KD of MS2 coat protein (input ligand: FMN 200 uM) [nM] | apparent KD of MS2 coat protein [1] [nM] | apparent KD of MS2 coat protein (input ligand: none) [nM] | apparent KD of MS2 coat protein [2] [nM] | apparent KD of MS2 coat protein [3] [nM] | apparent KD of MS2 coat protein [4] [nM] |
| --- | --- | --- | --- | --- | --- | --- |
| CCGAUGUAUGGAGGAUAUGGAGCCUUAUUGGCUCCAGAAGGCUAAUAACAUGAGGAUCACCCAUGUCGGCGGUCUAAUGACCGA [Eli NG1ss - 55] (Eterna round: R96, puzzle: Same State NG 1) | 48.2 | 49.3 | 112 | – | – | – |
| CCGGACAUGAGGAUCACCCAUGUCGACGGAUACCCUUGGGCAUAGGAUAUCUGGAAUUAAAAGAAAGAGAAGGGUGAUCCAAGG [Qusoinrege] (Eterna round: R96, puzzle: Same State NG 3) | 23.6 | 40.8 | 40.4 | – | – | – |
| CCGGAUAAUGGAGGAUAUGGAGCCUUAUUGGCUCCAGAAGGCUAACAUGAGGAUCACCCAUGUUUUCCGGCGGUCAAUAGACCG [Eli NG1ss - 63] (Eterna round: R96, puzzle: Same State NG 1) | 10 | 11.4 | 18.2 | – | – | – |
| CCGUAAAUGGAAGGAUAUGGAGCCUUAUUGGCUCCAGAAGGUUCAAUAACAUGAGGAUCACCCAUGUCGGCGGUCAAUAGACCG [Eli NG1ss - 79] (Eterna round: R96, puzzle: Same State NG 1) | 15.3 | 33.7 | 41.7 | – | – | – |
| CCGUAAUAUGGAGGAUAUGGAGCCUUAUUGGCUCCAGAAGGUCAUAAAACAUGAGGAUCACCCAUGUCGGCGGUCAAUAGACCG [Eli NG1ss - 77] (Eterna round: R96, puzzle: Same State NG 1) | – | 42.6 | – | – | – | – |
| CCGUUCAAUAAACAUGAGGAUCACCCAUGUGAUAAUAAGGGUGAGGAUAUGCAUCUGAAACAGGUGCAGAAGGCAUAAGAGCGG [JL SSNG3 3.91] (Eterna round: R96, puzzle: Same State NG 3) | 327 | 169 | 316 | – | – | – |
| CCUUAACAGUGAGGAUAUCGUUGCGAUAAGUGACGAGAAGGCACUCAUGUGAAAUAAACAUACAUGAGGAUCACCCAUGUUGUG [Omei SS(NG)1 Bv5] (Eterna round: R96, puzzle: Same State NG 1) | 34.4 | 40 | 44.2 | – | – | – |
| CGAGGCGUACAUGAGGAUCACCCAUGUACCUAACAACAAAGCAAGGAUAUCCUGGCUAUAAUACAGGAGAAGGUGUGGUCCUUA [Eternabot solution 15] (Eterna round: R96, puzzle: Same State NG 3) | – | 107 | – | – | – | – |
| CGCCGACAUGAGGAUCACCCAUGUGAGCGACUCACAGGAUAUACGCGAUAACAACUUCGCGUAGAAGGGUGCUCCU [Esvezaza] (puzzle: Same State 1) | – | – | – | 14.4 | 12.2 | 14.4 |
| CGCGGUAAGGAAGGAUAUGGGACGAAAACGUACCUAGAAGGUCCACAUGAGGAUCACCCAUGUACCAAGAAAGCCGCGAAAUUA [Cereraus] (Eterna round: R96, puzzle: Same State NG 1) | 90.7 | 276 | 410 | – | – | – |
| CGCUGUCACGCAGGAUAUGCAUUGGAUUACAAUGCAGAAGGGCGAUCACAUGAGGAUCACCCAUGUGUAGACAGUGAAGAAGAG [MOD2 JMF Solution 3] (Eterna round: R96, puzzle: Same State NG 1) | 46.1 | 479 | 480 | – | – | – |
| CGUAGGUAGCUGGAGGAUAUUCGAGUGGUAACAUGAGGAUCACCCAUGUGGAGUUAGGUACAUGAGGAGAAGGCUAGCUGCCUGC [JL-ss2-3.18 JL mod] (puzzle: Same State 2) | – | – | – | 10.4 | 23 | 27.4 |
| CGUCCGGCCUGAGCUGGACGGUAGCAUGUACAUGAGGAUCACCCAUGUUCAUGUGCAGGCUUUUUGCUCGUCUUGUG [salish99_mir208a_modof_jandersonlee_003] (puzzle: Sensor for hsa-mir-208a) | – | – | – | 42.3 | 10.6 | 44.9 |
| CGUCCGGCCUGUGCUGGCCGGAAGCUUGUACAUGAGGAUCACCCAUGUUCAUGUGCAGGCUUUUUGCUCGUCUUGUG [salish99_mir208a_009] (puzzle: Sensor for hsa-mir-208a) | – | – | – | 26.4 | 30.9 | 32.2 |
| CGUCCGGCCUGUGCUGGCCGGUAGCUUGUACAUGAGGAUCACCCAUGUUCAUGUGCAGGCUUUUUGCUCGUCUUGUG [salish99_mir208a_014] (puzzle: Sensor for hsa-mir-208a) | – | – | – | 27.9 | 29.6 | 31.5 |
| CGUCCGGCCUGUGCUGGCCGGUGGCGUGUACAUGAGGAUCACCCAUGUUCUUGUGCUGGCUGUUUGCUCGUCUUGUG [salish99_mir208a_r3_025] (puzzle: Sensor for hsa-mir-208a) | – | – | – | 44.8 | 23 | 58.2 |
